The results in this text go back to the supplement of paper PMC10567573.

± gives the standard deviation.

This data set in a line: protein stability index of a GFP-peptide fusion (GPS, HEK-293T) (PSI 1-6); higher = more stable. As to conditions: c terminus: a fixed tail appended.
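Further: 24-mer peptide tiles fused after GFP, lentivirally expressed, FACS-sorted into six equal bins by GFP/DsRed ratio, decoded by Illumina sequencing, PSI is the read-weighted mean bin number.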

With EEEEEGRFYYSEDDHGDECSYTDL [KCNA4], the protein stability index stood at 5.4 ± 0.12 (treatment: DMSO) and 5.33 ± 0.2 (treatment: MLN4924 1 uM, 8 h).
Take EEETYKCLECGKSFCHGSSLKRHL [ZNF449]: the protein stability index amounted to 3.77 ± 0.5 (treatment: DMSO) and 3.78 ± 0.79 (treatment: MLN4924 1 uM, 8 h).
Consider EEINKNISDFGRQQLLPPFPSLHQ [EHMT1], for which the protein stability index came to 3.08 ± 0.27 (treatment: DMSO) and 3.64 ± 0.4 (treatment: MLN4924 1 uM, 8 h).
Consider EEITEESLEESVGKPLYLIFRNLC [INTS3], for which the protein stability index runs as follows: (treatment: DMSO) 2.79 ± 0.58; (treatment: MLN4924 1 uM, 8 h) 2.88 ± 0.38.
In the same order, the values of EEQALTKAAEGGLSSPEFSELCIW [FAM98B] are 3.72 ± 0.052 and 3.65 ± 0.11.
Consider EFSSVGTEMIITKAGRRMFPACRV [TBX6], for which the protein stability index was determined as 2.7 ± 0.21 (treatment: DMSO) and 2.66 ± 0.34 (treatment: MLN4924 1 uM, 8 h).
For EGDPGSKQPRKKRGRYRQYNSEIL [LCOR], in that order: 4.64 ± 0.22 and 4.55 ± 0.28.
Consider EGGGTSLHVACELARPECLFLLLG [ANKRD9], for which the protein stability index by setting is: (treatment: DMSO) 2.03 ± 0.091; (treatment: MLN4924 1 uM, 8 h) 2.06 ± 0.67.
As to EGVSLTAVLTTHHHWDHARGNPEL [HAGHL], the protein stability index is, setting by setting: (treatment: DMSO) 2.72 ± 0.27; (treatment: MLN4924 1 uM, 8 h) 2.87 ± 0.42.
For EGYILREDGKTCRRKDVCQAIDHG [MATN2], in that order: 4.31 ± 0.63 and 4.44 ± 0.22.
For EIIELRRTVNALEIELQAQHNLRD [KRT34], in that order: 2.89 ± 0.36 and 3.03 ± 0.22.
For EKDRIKSFTTNEKAILEQNFRDLV [TRIM29], in that order: 3.53 ± 0.27 and 3.82 ± 0.43.
In the case of EKETQIIASIGRHRYIAYMANQEA [IQUB], the protein stability index was 3.07 ± 0.32 (treatment: DMSO) and 2.88 ± 0.46 (treatment: MLN4924 1 uM, 8 h).
In the same order, the values of EKGEKGDRAGDASKDILLGPWDMV [SCARA5] are 4.41 ± 0.37 and 4.71 ± 0.36.
For EKVKACQGQYETIERLRSLSPKIM [TBC1D10A], in that order: 3.02 ± 0.28 and 3.23 ± 0.16.
For ELEIELQSQLSMKAGLENSLAETE [KRT15], in that order: 4.77 ± 0.33 and 4.75 ± 0.25.
With ELKMRAIQAEERLDMEKRRCRQSL [LRRC45], the protein stability index reads like this: (treatment: DMSO) 3.92 ± 0.22; (treatment: MLN4924 1 uM, 8 h) 4.13 ± 0.11.
For ELNAEKFKNSLLQKELKKAQMAKA [WEE1], the protein stability index is 4 ± 0.84 (treatment: DMSO) and 3.42 ± 0.4 (treatment: MLN4924 1 uM, 8 h).
Turning to ELQLEQSRAANQEQRANDLEQIME [CEP70], the protein stability index (treatment: DMSO) was determined as 5.1 ± 0.15 and the protein stability index (treatment: MLN4924 1 uM, 8 h) is 5.16 ± 0.092.
In the same order, the values of ELQLSDLLKQGYNKTLLRLRLRKE [PKD2L1] are 2.39 ± 0.26 and 2.76 ± 0.24.
In the case of ELSSVHPPHYFFTYRIRIEMSKDA [FBXO3], the protein stability index amounted to 2.15 ± 0.21 (treatment: DMSO) and 2.18 ± 0.42 (treatment: MLN4924 1 uM, 8 h).
On to ELVLCVLVSIRNNRNLQKFSLFGD [FBXO33], for which the protein stability index reads like this: (treatment: DMSO) 2.87 ± 0.54; (treatment: MLN4924 1 uM, 8 h) 2.86 ± 0.34.
As to ENDSTPTVSTSEVTSQQEPQIPVD [TAF7L], the protein stability index runs as follows: (treatment: DMSO) 5.53 ± 0.2; (treatment: MLN4924 1 uM, 8 h) 5.59 ± 0.26.
In the same order, the values of ENERVRGLETGDWGGAPKEGSIWR [ZSWIM9] are 4.29 ± 0.32 and 4.16 ± 0.28.
On to ENIDSLYNVNLSKGRAALSATVPR [SCNN1D], for which the protein stability index by setting is: (treatment: DMSO) 3.94 ± 0.39; (treatment: MLN4924 1 uM, 8 h) 4.04 ± 0.24.
In the same order, the values of ENRVSTLRVSPDGTAFCSGSWDHT [GNB5] are 3.95 ± 0.14 and 3.9 ± 0.19.
For EPEDMETLEEKFSDVHPVALNFMK [CDKL4], in that order: 4.68 ± 0.3 and 4.89 ± 0.19.
On to EPERQVQHEESTEGEADHSGYAGE [UFD1], for which the protein stability index came to 5.61 ± 0.28 (treatment: DMSO) and 5.7 ± 0.24 (treatment: MLN4924 1 uM, 8 h).
With EPGRLYLDLILAILALELICSLIC [TMEM192], the protein stability index reads like this: (treatment: DMSO) 2.35 ± 0.49; (treatment: MLN4924 1 uM, 8 h) 2.21 ± 0.34.
Sequence EQLAALSQAPVNKPKKKKEKKEKE [BRD3] had a protein stability index (treatment: DMSO) of 5.38 ± 0.2 and a protein stability index (treatment: MLN4924 1 uM, 8 h) of 5.67 ± 0.2.
For EQLGSGDGIPQVYYFGPCGKYNAM [CSNK1G3], in that order: 2.34 ± 0.14 and 2.56 ± 0.17.
In the same order, the values of EQWDRLLVLYPTSLAIFSEELDGL [PLEKHN1] are 2.37 ± 0.3 and 2.44 ± 0.43.
Consider ERIRLLRQKREAAARKKYNLLQDS [C18orf25], for which the protein stability index reads like this: (treatment: DMSO) 3.25 ± 0.34; (treatment: MLN4924 1 uM, 8 h) 3.6 ± 0.36.
In the case of ERLFGSAANVVSAKRNRLAPAHVD [ZBED1], the protein stability index runs as follows: (treatment: DMSO) 3.65 ± 0.41; (treatment: MLN4924 1 uM, 8 h) 3.66 ± 0.34.
In the same order, the values of ERSDLEEDNEREGTENGAIDAVPV [ZC3H15] are 5.5 ± 0.19 and 5.5 ± 0.33.
For ERSDPVEQGKPVIPAAVLAGFTGS [ETS2], in that order: 4.59 ± 0.23 and 4.7 ± 0.31.
For ERSRGRSISRGRHARTHPQTALLE [MATN2], in that order: 4.31 ± 0.53 and 4.72 ± 0.3.
As for ESEEEGPWEPPVLPILTWPVLQSR [HDAC6], the protein stability index is, setting by setting: (treatment: DMSO) 4.5 ± 0.17; (treatment: MLN4924 1 uM, 8 h) 4.37 ± 0.15.
For ETLEASVGPRETEEKVRDLLWAKF [TOR1AIP2], in that order: 3.98 ± 0.22 and 3.92 ± 0.3.
Regarding ETRPAKRITITESNMKSRYTTEFH [WEE1], the protein stability index (treatment: DMSO) is 3.49 ± 0.27 and the protein stability index (treatment: MLN4924 1 uM, 8 h) came to 3.6 ± 0.071.
Regarding ETSVFDQFGIKDVFDNAIRAALIS [RHOBTB1], the protein stability index is, setting by setting: (treatment: DMSO) 2.3 ± 0.22; (treatment: MLN4924 1 uM, 8 h) 2.18 ± 0.33.
For EVCYEDLGCFSDTEPWGGTAIRPL [PNLIPRP1], in that order: 3.18 ± 0.19 and 3.54 ± 0.66.
For EVEVVEEAKCCCFFKRKRKKTAQR [CSNK1G1], in that order: 4.4 ± 0.41 and 4.45 ± 0.12.
As for EVIISWSEKASKKYVSKELAKEIR [EIF5], the protein stability index runs as follows: (treatment: DMSO) 2.34 ± 0.15; (treatment: MLN4924 1 uM, 8 h) 2.57 ± 0.26.
For the sequence EWFQNCYARYHQAFADRDQSERQR [TEKT4], the protein stability index runs as follows: (treatment: DMSO) 3.41 ± 0.24; (treatment: MLN4924 1 uM, 8 h) 3.21 ± 0.21.
For EYDYLFKVVLIGDSGVGKSNLLSR [RAB11A], in that order: 2.6 ± 0.65 and 2.39 ± 0.7.
In the same order, the values of EYECRRRMLMKRLDVTVQSFGWSD [FAM98B] are 2.48 ± 0.14 and 2.45 ± 0.11.
For EYLLSFPAGKTPVPAGEEEGELGE [VPS39], in that order: 5.25 ± 0.43 and 5.31 ± 0.071.
Consider EYVLLKALALANSDSVHIEDAEAV [ESRRA], for which the protein stability index (treatment: DMSO) was 3.36 ± 0.33 and the protein stability index (treatment: MLN4924 1 uM, 8 h) was found to be 3.55 ± 0.37.
For FAHHSLFLHVRKATRAMGLLNTLS [TMEM175], in that order: 2.6 ± 0.78 and 2.18 ± 0.23.
On to FAKKLVDRTWTLCGTPEYLAPEVI [PRKX], for which the protein stability index turned out to be 2.63 ± 0.8 (treatment: DMSO) and 2.29 ± 0.19 (treatment: MLN4924 1 uM, 8 h).
For the sequence FCISLLRERFMECLMIGRDLVRLL [INTS3], the protein stability index is, setting by setting: (treatment: DMSO) 2.27 ± 0.28; (treatment: MLN4924 1 uM, 8 h) 2.29 ± 0.13.
